From the supplement of paper PMC9170038

Test system: MS2 coat protein
Assay: apparent KD of MS2 coat protein; designed switch direction (-1 OFF switch, 1 ON switch): -1; higher = weaker reporter binding
Procedure, shortened: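 Three titration conditions were used: no input, 200 uM small-molecule ligand, and an oligonucleotide input. In each, SNAP-549-labelled MS2 coat protein was raised from 0.7 or 1.5 nM, doubling, to 3 µM over designed RNA switches transcribed on Illumina chips by stalled E. coli RNA polymerase. Curve fits of normalised cluster fluorescence gave values whose per-design median over clusters is the apparent KD.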

[1] = Eterna round: R95, input ligand: FMN 200 uM
[2] = Eterna round: R95, input ligand: microRNA oligo, concentration not stated
[3] = Eterna round: R95, input ligand: none
[4] = input ligand: microRNA oligo, concentration not stated

Row | Sequence | apparent KD of MS2 coat protein (input ligand: FMN 200 uM) [nM] | apparent KD of MS2 coat protein (input ligand: none) [nM] | apparent KD of MS2 coat protein [1] [nM] | apparent KD of MS2 coat protein [2] [nM] | apparent KD of MS2 coat protein [3] [nM] | apparent KD of MS2 coat protein [4] [nM]
1 | GGUAGGUGUGACUUGGGUGACAUGAGGAUCACCCAUGUCACAAGCUUGUUGCUCGCCUUGUAGUUAACCCAUGUCAC [LRO Sensor-off var1-30 mod of Stov1-13-A1 by Brourd] (Eterna round: R97, puzzle: Sensor, turn-off variant 1) | 34.1 | 34.5 |  |  |  | 
2 | GGUCAAGAACAGAUCCGCGCUGUCAUUGACCGCUCAUUUACAUGAGGAUCACCCAUGUUUUUUGCUUGUCUUGUUAC [Edrama] (puzzle: Sensor v3, turn-off variant 2) |  |  | 19.6 | 88.3 | 18.2 | 
3 | GGUCAGAUGGUAGGAUAUCCAUAUCGAGUGACCCUUUUAUAACAUGAGGAUCACCCAUGUCGGUGGGAGAAGGGCCGUACGGCG [salish99_ExNG02_R04_018] (Eterna round: R96, puzzle: Exclusion NG 2) | 244 | 224 |  |  |  | 129
4 | GGUCAGAUGGUAGGAUAUUUAUAUCGAGUGACCCUUUCAUAACAUGAGGAUCACCCAUGUCGGUGGGAGAAGGGCCGUACGGCG [salish99_ExNG02_R04_013] (Eterna round: R96, puzzle: Exclusion NG 2) | 37.7 | 45.7 |  |  |  | 33.1
5 | GGUCAGCUAGGAUAUACAUGAGGAUCACCCAUGUACUGACCCAUGCGGGAAUCCGCGUGUAGAAGGAGCAAAAG [jl-ex3-4.60 ViennaUCT mod] (Eterna round: R97, puzzle: Exclusion 3) | 33 | 32.5 |  |  |  | 
6 | GGUCCACAUGAGGAUCACCCAUGUUAGGAUAUCUCCUGCCUCCUAAAUGGAAGCAGACAGAGAAGGAACAUCAA [Soanatra] (Eterna round: R96, puzzle: Exclusion 1) | 113 | 25.4 |  |  |  | 21.8
7 | GGUCCACAUGAGGAUCACCCAUGUUAGGAUAUCUCCUGCCUCCUAAAUGGAAGCAGACAGAGAAGGAACAUCAA [Soanatra] (puzzle: Exclusion 1) |  |  |  | 24.5 |  | 
8 | GGUCCACAUGAGGAUCACCCAUGUUAGGAUAUCUCGCCCGAGUCCAUAUGGGCCGGGCAGAGAAGGAAUGUGAA [Vevequbi] (puzzle: Exclusion 1) |  |  |  | 17.4 |  | 
9 | GGUCGAAGUGUGAGGAUAUGCUGGUCCUUGGAUCAGCAGAAGGCACAUGAGGAUCACCCAUGUGGUAAACGACC [Mat - Exclusion 4 - Eli Mod - D34] (Eterna round: R97, puzzle: Brourd's mod of Exclusion 4) | 982 | 171 |  |  |  | 
10 | GGUCGACAUGAGGAUCACCCAUGUCAGGAUAUCGUCACUGGAGCUUCGGCUCCAGUGACGAGAAGGGACAUAAU [E1/14-A1] (Eterna round: R97, puzzle: Exclusion 1) | 39.5 | 39.2 |  |  |  | 
11 | GGUCGGCGAGGAUAUACAUGAGGAUCACCCAUGUGAUAGAGUGCACGCGUACGUGUAUGUAGAAGGCGCUGACG [JL-ex3-3.29 salish99 mod] (puzzle: Exclusion 3) |  |  | 160 | 34.2 | 66 | 
12 | GGUCGGCGAGGAUAUACAUGAGGAUCACCCAUGUGAUAUAGUGCACGCGUACGUGUACGUAGAAGGCGCUGACG [JL-ex3-3.26 salish99 mod] (puzzle: Exclusion 3) |  |  | 39.6 | 11.2 | 15.1 | 
13 | GGUCGUCAAGUCAGGAUAUCGUAUAGUCGAUGUAACGAGAAGGGACAUGAGGAUCACCCAUGUCGUCUCAUCAG [Ex4 #25] (Eterna round: R97, puzzle: Brourd's mod of Exclusion 4) | 18.2 | 17.7 |  |  |  | 
14 | GGUCUGCGAGGAUAUACAUGAGGAUCACCCAUGUGAGUGAUACUAGUGAGGUCGAUUGGUAGAAGGCGCGGACG [JL-ex3-2.05 salish99 mod] (puzzle: Exclusion 3) |  |  | 37 | 445 | 839 | 
